For 2 substances, SPR sensorgram peak (response units) results are on record in paper doi:10.1101/2025.04.22.649924.

In this test the target is ectodomain of APP^695. In words: SPR. A general note: SPR reads the build-up and loss of mass on a sensor chip optically.

As for “SORLA^WT ectodomain (soluble wildtype SORLA ectodomain, hexa-His-tagged) (from UniProt Q92673 82-2137) (domain or fragment)”, the SPR sensorgram peak (response units) turned out to be 1750 RU.

With “SORLA^N1358S ectodomain (soluble mutant SORLA ectodomain, hexa-His-tagged) (from UniProt Q92673 82-2137) (domain or fragment)”, the SPR sensorgram peak (response units) is 1650 RU.
